Laboratory results taken from patent US20240101642A1.

Molecular target: phosphopeptide-ligated β2AR with a deletion of the third intracellular loop (β2ARppΔ238-267), in HDL particles (human), P07550
Assay: cell-based or functional assay

fold increase of agonist affinity by the transducer: 10 fold | log IC50 of isoproterenol (ISO), competition radioligand binding, in the presence of βarr1 (no transducer: -6.91+/-0.04): -7.63 log
B1: β-arrestin1, minimal cysteine and truncated variant of rat βarr1 (βarr1-MC-393), P29066 1-393 (protein, UniProt P29066 1-393, looked up)
chain: MGDKGTRVFKKASPNGKLTVYLGKRDFVDHIDLVDPVDGVVLVDPEYLKERRVYVTLTAAFRYGREDLDVLGLTFRKDLFVANVQSFPPAPEDKKPLTRLQERLIKKLGEHAYPFTFEIPPNLPSSVTLQPGPEDTGKAIGVDYEVKAFVAENLEEKIHKRNSVRLVIRKVQYAPERPGPQPTAETTRQFLMSDKPLHLEASLDKEIYYHGEPISVNVHVTNNTNKTVKKIKISVRQYADIVLFNTAQYKVPVAMEEADDTVAPSSTFSKVYTLTPFLANNREKRGLALDGKLKHEDTNLASSTLLREGANREILGIIVSYKVKVKLVVSRGGLLGDLASSDVAVELPFTLMHPKPKEEPPHREVPESETPVDTNLIELDTNDDDIVFEDFAR
